Reference: patent US20250262210A1 (TRUSTEES OF COLUMBIA UNIVERSITY IN THE CITY OF NEW YORK, published 2025)

Experiments:
PTPN23 = PTPN23 (human, UniProt Q9H3S7 1-1636); assay: IP/MS, LZTR1 wild type-FLAG, U87
Method in brief: (§1)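 Extracted peptides in 3% acetonitrile/0.1% formic acid ran on a 50 cm C18 column into an Orbitrap Fusion, with MaxQuant identification and spectral counting.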

POLR3A = molecular target: T1, POLR3A (human, UniProt O14802 1-1390); assay: IP/MS, LZTR1 wild type-FLAG, U87
T1 sequence (looked up): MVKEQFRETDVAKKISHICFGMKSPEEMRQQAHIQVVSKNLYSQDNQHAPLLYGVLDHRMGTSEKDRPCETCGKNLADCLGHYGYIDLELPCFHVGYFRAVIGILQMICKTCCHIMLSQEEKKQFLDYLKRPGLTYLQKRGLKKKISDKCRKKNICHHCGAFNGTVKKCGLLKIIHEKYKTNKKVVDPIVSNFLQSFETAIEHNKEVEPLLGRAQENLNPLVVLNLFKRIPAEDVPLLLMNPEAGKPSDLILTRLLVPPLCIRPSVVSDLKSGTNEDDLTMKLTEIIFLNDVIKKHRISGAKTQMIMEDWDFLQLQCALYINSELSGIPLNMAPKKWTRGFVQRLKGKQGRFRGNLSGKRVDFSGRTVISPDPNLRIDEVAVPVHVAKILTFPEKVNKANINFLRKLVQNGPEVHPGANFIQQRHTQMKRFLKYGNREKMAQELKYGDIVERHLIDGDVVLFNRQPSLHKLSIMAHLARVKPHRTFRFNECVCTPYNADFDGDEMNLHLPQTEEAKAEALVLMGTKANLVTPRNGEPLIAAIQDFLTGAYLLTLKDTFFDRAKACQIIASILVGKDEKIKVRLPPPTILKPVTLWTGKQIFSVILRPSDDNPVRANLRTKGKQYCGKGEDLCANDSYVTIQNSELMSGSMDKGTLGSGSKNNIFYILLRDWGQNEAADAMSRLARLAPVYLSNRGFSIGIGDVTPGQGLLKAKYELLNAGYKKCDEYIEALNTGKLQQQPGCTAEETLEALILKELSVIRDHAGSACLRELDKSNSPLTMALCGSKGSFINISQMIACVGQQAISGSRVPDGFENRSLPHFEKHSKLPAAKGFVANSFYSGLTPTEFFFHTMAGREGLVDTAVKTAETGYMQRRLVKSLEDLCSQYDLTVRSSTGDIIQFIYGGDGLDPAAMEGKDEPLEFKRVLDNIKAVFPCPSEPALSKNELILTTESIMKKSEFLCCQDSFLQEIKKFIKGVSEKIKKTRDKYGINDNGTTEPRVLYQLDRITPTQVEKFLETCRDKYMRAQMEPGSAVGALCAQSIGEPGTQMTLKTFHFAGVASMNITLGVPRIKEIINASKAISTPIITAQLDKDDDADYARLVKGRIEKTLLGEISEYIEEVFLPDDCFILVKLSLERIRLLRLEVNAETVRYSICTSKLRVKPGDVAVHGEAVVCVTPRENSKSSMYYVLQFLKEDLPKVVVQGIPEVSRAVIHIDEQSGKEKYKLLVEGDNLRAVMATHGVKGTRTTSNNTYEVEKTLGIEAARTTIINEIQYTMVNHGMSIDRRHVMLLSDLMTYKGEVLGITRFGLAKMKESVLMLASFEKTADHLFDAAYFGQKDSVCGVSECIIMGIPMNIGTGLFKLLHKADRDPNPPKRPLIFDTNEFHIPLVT
Method in brief: as §1

Chain of PTPN23 (Q9H3S7 whole entry, the tested form may be a part): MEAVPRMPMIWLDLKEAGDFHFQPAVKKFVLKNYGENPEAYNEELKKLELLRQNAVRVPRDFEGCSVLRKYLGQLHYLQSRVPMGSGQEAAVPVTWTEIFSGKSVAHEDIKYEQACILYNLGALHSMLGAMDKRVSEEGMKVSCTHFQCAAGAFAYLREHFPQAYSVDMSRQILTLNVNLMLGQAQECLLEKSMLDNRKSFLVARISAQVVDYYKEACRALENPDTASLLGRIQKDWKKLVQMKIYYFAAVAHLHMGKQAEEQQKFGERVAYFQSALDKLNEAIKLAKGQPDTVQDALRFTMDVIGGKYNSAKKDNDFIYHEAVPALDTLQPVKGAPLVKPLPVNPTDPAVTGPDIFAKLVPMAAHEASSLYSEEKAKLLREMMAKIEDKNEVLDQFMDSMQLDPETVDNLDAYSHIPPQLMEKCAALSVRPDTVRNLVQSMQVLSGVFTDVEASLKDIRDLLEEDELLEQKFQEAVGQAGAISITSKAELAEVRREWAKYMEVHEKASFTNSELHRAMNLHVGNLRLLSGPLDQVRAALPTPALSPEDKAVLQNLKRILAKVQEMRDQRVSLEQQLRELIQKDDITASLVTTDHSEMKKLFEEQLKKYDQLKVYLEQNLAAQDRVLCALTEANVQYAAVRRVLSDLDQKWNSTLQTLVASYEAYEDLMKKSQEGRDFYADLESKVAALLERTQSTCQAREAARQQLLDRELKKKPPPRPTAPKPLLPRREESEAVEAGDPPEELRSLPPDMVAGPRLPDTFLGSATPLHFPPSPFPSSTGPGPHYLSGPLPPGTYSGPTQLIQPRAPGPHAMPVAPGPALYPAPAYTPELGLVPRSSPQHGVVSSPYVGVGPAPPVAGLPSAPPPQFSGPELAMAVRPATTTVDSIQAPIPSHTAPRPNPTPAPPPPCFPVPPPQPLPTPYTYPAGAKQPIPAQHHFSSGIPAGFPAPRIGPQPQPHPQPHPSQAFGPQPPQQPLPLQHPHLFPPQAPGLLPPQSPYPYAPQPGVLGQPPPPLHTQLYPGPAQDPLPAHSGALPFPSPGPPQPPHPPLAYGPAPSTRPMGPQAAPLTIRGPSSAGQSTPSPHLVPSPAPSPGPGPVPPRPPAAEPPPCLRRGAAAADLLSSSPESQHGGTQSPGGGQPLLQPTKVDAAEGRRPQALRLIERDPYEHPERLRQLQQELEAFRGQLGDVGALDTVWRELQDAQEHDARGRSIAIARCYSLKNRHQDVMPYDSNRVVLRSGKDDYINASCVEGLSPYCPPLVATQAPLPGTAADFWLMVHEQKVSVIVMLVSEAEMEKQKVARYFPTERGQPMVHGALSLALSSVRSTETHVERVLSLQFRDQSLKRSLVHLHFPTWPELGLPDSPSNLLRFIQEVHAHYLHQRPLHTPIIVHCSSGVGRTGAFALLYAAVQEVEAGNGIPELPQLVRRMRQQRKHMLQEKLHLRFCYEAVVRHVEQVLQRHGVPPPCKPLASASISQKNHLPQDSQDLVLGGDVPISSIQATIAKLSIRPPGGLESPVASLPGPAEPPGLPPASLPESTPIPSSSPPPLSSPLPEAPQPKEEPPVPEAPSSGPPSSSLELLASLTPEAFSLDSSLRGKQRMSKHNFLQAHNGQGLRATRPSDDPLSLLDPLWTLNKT

binding result (PTPN23): binds
binding result (POLR3A): binds
B1: LZTR1-FLAG (other, human, UniProt Q8N653 1-840, looked up)
chain: MAGPGSTGGQIGAAALAGGARSKVAPSVDFDHSCSDSVEYLTLNFGPFETVHRWRRLPPCDEFVGARRSKHTVVAYKDAIYVFGGDNGKTMLNDLLRFDVKDCSWCRAFTTGTPPAPRYHHSAVVYGSSMFVFGGYTGDIYSNSNLKNKNDLFEYKFATGQWTEWKIEGRLPVARSAHGATVYSDKLWIFAGYDGNARLNDMWTIGLQDRELTCWEEVAQSGEIPPSCCNFPVAVCRDKMFVFSGQSGAKITNNLFQFEFKDKTWTRIPTEHLLRGSPPPPQRRYGHTMVAFDRHLYVFGGAADNTLPNELHCYDVDFQTWEVVQPSSDSEVGGAEVPERACASEEVPTLTYEERVGFKKSRDVFGLDFGTTSAKQPTQPASELPSGRLFHAAAVISDAMYIFGGTVDNNIRSGEMYRFQFSCYPKCTLHEDYGRLWESRQFCDVEFVLGEKEECVQGHVAIVTARSRWLRRKITQARERLAQKLEQEAAPVPREAPGVAAGGARPPLLHVAIREAEARPFEVLMQFLYTDKIKYPRKGHVEDVLLIMDVYKLALSFQLCRLEQLCRQYIEASVDLQNVLVVCESAARLQLSQLKEHCLNFVVKESHFNQVIMMKEFERLSSPLIVEIVRRKQQPPPRTPLDQPVDIGTSLIQDMKAYLEGAGAEFCDITLLLDGHPRPAHKAILAARSSYFEAMFRSFMPEDGQVNISIGEMVPSRQAFESMLRYIYYGEVNMPPEDSLYLFAAPYYYGFYNNRLQAYCKQNLEMNVTVQNVLQILEAADKTQALDMKRHCLHIIVHQFTKVSKLPTLRSLSQQLLLDIIDSLASHISDKQCAELGADI
notes: Expressed in HEK 293T, HeLa or U87 cells; used as cell lysate; also called LZTR1 wild type-FLAG; LZTR1 WT; not shown: FLAG tag at the C-terminus
